# Source: patent US20060205037A1 (published 2006)
# T1: rat GLP-1 receptor (CHO cells transfected with the rat GLP-1 receptor) (rat, UniProt P32301 22-463)
# T1 sequence (looked up): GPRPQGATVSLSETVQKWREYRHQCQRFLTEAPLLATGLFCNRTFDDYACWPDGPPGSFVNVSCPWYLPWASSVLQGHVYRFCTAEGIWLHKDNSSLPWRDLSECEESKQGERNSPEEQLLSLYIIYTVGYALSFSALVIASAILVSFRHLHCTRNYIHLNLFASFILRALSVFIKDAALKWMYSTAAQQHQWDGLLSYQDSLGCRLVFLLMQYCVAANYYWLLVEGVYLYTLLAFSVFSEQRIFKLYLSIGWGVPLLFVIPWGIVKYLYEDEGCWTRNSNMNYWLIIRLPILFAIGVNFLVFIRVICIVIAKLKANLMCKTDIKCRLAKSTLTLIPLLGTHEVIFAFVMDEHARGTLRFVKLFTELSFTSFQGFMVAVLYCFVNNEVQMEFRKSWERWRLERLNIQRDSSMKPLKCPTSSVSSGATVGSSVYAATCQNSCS
# Target: T1, rat GLP-1 receptor (CHO cells …)
# Assay: cell-based or functional assay
binder,measurement,value
pREX0558: GLP-1 (7-37;A8G;G22E;K34A) fused to the N-terminus of transferrin with PEAPTD and IgG hinge linkers (other) HGEGTFTSDVSSYLEEQAAKEFIAWLVAGRGPEAPTDVEPKSSDKTHTSPPSPAPELLGGPSVPDKTVRWCAVSEHEATKCQSFRDHMKSVIPSDGPSVACVKKASYLDCIRAIAANEADAVTLDAGLVYDAYLAPNNLKPVVAEFYGSKEDPQTFYYAVAVVKKDSGFQMNQLRGKKSCHTGLGRSAGWNIPIGLLYCDLPEPRKPLEKAVANFFSGSCAPCADGTDFPQLCQLCPGCGCSTLNQYFGYSGAFKCLKDGAGDVAFVKHSTIFENLANKADRDQYELLCLDNTRKPVDEYKDCHLAQVPSHTVVARSMGGKEDLIWELLNQAQEHFGKDKSKEFQLFSSPHGKDLLFKDSAHGFLKVPPRMDAKMYLGYEYVTAIRNLREGTCPEAPTDECKPVKWCALSHHERLKCDEWSVNSVGKIECVSAETTEDCIAKIMNGEADAMSLDGGFVYIAGKCGLVPVLAENYNKADNCEDTPEAGYFAVAVVKKSASDLTWDNLKGKKSCHTAVGRTAGWNIPMGLLYNKINHCRFDEFFSEGCAPGSKKDSSLCKLCMGSGLNLCEPNNKEGYYGYTGAFRCLVEKGDVAFVKHQTVPQNTGGKNPDPWAKNLNEKDYELLCLDGTRKPVEEYANCHLARAPNHAVVTRKDKEACVHKILRQQQHLFGSNVADCSGNFCLFRSETKDLLFRDDTVCLAKLHDRNTYEKYLGEEYVKAVGNLRKCSTSSLLEACTFRRP,cAMP assay EC50 (fermentation F0191),5.9 nM
